In paper PMC7028737:

Molecular target: Skp1-FBW7 complex (UniProt Q969H0)
Assay: ITC; MicroCal VP-ITC, 30 °C, 50 mM phosphate buffer pH 7.4; cell: 15 μM Skp1-FBW7 complex (1400 μL); syringe: 300 μM FIR∆exon2, 25 injections of 10 μL

Sequence of UniProt Q969H0 (Q969H0 whole entry, chain 1 of 2): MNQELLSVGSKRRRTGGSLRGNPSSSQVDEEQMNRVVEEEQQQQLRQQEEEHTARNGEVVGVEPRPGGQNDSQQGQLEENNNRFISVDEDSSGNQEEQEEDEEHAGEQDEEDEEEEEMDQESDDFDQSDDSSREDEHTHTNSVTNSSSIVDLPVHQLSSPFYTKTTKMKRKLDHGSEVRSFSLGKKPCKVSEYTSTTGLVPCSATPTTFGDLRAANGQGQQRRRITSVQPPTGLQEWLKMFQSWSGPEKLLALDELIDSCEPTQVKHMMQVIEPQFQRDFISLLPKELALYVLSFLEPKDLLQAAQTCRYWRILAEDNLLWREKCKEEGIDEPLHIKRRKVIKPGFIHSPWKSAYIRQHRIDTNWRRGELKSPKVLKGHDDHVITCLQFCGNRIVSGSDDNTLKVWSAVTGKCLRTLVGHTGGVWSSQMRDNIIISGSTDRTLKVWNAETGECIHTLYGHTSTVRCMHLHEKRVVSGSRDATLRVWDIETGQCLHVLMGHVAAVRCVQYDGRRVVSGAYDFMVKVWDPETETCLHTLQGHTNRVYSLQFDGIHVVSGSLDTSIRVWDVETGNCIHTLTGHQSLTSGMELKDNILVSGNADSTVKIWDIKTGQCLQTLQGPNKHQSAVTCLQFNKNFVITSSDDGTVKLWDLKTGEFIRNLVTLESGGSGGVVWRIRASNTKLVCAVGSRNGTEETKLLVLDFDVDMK
Sequence of UniProt Q969H0 (P63208 whole entry, chain 2 of 2, further chain): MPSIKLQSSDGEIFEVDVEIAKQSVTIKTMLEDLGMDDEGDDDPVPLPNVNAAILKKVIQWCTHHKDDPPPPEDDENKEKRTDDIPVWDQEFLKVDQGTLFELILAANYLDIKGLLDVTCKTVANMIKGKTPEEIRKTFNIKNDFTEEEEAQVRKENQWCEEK

Substance “FIR∆exon2 (recombinant, Nus-tag cleaved) (natural protein)” has a Ka of over 108 M⁻¹.
